# In US20110262445A1 (CEPHALON AUSTRALIA, published 2011):
# T1: human IL-12 (human, UniProt P29460 23-328; P29459 23-219)
# T1 construct: Recombinant (Peprotech); FLAG-tagged IL-12 in the flow cytometry assays, biotinylated in the IL-12Rβ2 assay; also called hIL-12
# T1 sequence 1: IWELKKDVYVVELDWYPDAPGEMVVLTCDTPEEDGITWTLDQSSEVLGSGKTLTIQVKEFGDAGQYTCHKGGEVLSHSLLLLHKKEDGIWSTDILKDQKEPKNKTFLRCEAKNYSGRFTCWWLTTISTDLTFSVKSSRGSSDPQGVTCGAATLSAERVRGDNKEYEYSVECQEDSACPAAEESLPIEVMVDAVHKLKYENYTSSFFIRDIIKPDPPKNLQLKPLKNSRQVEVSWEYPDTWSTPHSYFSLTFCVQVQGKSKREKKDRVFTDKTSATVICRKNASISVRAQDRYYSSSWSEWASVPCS
# T1 sequence 2: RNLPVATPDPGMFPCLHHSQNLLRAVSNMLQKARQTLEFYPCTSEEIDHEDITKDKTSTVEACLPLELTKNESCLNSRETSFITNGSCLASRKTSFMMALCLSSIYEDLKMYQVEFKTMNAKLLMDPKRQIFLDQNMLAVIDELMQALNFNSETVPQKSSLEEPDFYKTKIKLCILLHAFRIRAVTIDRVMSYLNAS
# T2: human IL-23 (human, UniProt P29460 23-328; Q9NPF7 20-189)
# T2 construct: Recombinant (Ebioscience); HIS-tagged in flow cytometry, biotinylated in some assays; also called hIL-23; rhIL-23
# T2 sequence 1: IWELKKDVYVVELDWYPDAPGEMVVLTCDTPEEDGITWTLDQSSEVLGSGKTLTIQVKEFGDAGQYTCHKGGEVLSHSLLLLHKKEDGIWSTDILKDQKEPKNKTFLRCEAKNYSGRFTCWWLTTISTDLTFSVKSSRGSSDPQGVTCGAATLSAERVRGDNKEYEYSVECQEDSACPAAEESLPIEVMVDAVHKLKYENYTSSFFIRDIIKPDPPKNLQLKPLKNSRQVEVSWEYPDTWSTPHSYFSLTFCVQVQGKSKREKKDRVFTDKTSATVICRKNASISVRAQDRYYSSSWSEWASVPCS
# T2 sequence 2: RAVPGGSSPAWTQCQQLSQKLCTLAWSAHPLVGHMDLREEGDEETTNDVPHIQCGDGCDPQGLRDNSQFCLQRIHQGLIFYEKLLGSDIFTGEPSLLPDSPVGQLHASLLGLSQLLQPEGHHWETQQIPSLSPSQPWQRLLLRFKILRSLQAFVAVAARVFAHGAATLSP
# B1: scFv AQ-G10 (scFv)
# scFv: QVQLVQSGAEVEKPGASVKVSCKASGYTFTDYYLHWVRQAPGQGLEWMGWIDPENGDTEYAPKFQGGVTMTTDTSTSTAYMELRSLRSDDTAVYYCNANKELRYFDVWGQGTMVTVSSGGGGSGGGGSGGGGSEIVMTQSPATLSVSPGERATLSCRASQSISINLHWYQQKPGQAPRLLIYFASQSISGIPARFSGSGSGTEFTLTISSLQSEDFAVYYCQQSNSFPLTFGGGTKVEIKR
# notes: scFv-80 variant: VH K12E, R66G; not shown: proprietary C-terminal FLAG tag
# B2: scFv CW-H1 (scFv)
# scFv: QVQLVQSGAEVKKPGASVKVSCKASGYTFTDYYLHWVRQAPGQGLEWMGWIDPENGDTEYAPKFQGRVTMTTDTSTSTAYMELRSLRSDDTAVYYCNANKELRYFDVWGQGTMVTVSSGGGGSGGGGSGGGGSEIVMTQSPATLSVSPGERATLSCRASQSISINLHWYQQKPGQAPRLLIYFARQSISGIPARFSGSGSGTEFTLTISSLQSEDFAVYYCQQSNSFPLTFGGGTKVEIKR
# notes: scFv-80 variant: VL S52R; not shown: proprietary C-terminal FLAG tag
# B3: scFv AU-G9 (scFv)
# scFv: QVQLVQSGAEVKKPGASVKVSCKASGYTFTDYYLHWVRQAPGRGLEWMGWIDPENGDTEYAPKFQGRVTMTTDTSTSTAYMELRSLRSDDTAVYYCNANKELRYFDVWGQGTMVTVSSGGGGSGGGGSGGGGSEIVMTQSPATLSVSPGERATLSCRASQSISINLHWYQQKPGQAPRLLIYFASQSTSGIPARFSGSGSGTEFTLTISSLQSEDFAVYYCQQSNSFPLTFGGGTKVEIKR
# notes: scFv-80 variant: VH Q43R; VL I55T; not shown: proprietary C-terminal FLAG tag
# B4: scFv AX-G4 (scFv)
# scFv: QVQLVQSGAEVKKPGASVKVSCKASGYTFTDYYLHWVRQAPGQGLEWMGWIDPENGDTEYAPKFQGRVTMTTDTSTSTAYMELRSLRSDDTAVYYCNANKELRYFDVWGQGTMVTVSSGGGGSGGGGSGGGGSEIVMTQSPATLSVSPGERATLSCRAPQSISINLHWYQQKPGQAPRLLIYFASQSISGIPARFSGSGSGTEFTLTISSLQSEDFAVYYCQQSNSFPLTFGGGTKVEIKR
# notes: scFv-80 variant: VL S26P; not shown: proprietary C-terminal FLAG tag
# B5: scFv BB-A9 (scFv)
# scFv: QVQLVQSGAEVKKPGASVKVSCKASGYAFTDYYLHWVRQAPGQGLEWMGWIDPENGDTEYAPKFQGRVSMTTDTSTSTAYMELRSLRSDDTAVYYCNANKELRYFDVWGQGTMVTVSSGGGGSGGGGSGGGGSEIVMTQSPATLSVSPGERATLSCRASQSISINLHWYQQKPGQAPRLLIYFASQSISGIPARFSGSGSGTEFTLTISSLQSEDFAVYYCQQSNSFPLTFGGGTKVEIKR
# notes: scFv-80 variant: VH T28A, T68S; not shown: proprietary C-terminal FLAG tag
# B6: scFv CL-G7 (scFv)
# scFv: QVQLVQSGAQVKKPGASVKVSCKASGYTFTDYYLHWVRQAPGQGLEWMGWIDPENGDTEYAPKFQGRVTMTTDTSTSTAYMELRSLRSDDTAVYYCNANKELRYFDVWGQGTMVTVSSGGGGSGGGGSGGGGSEIVMTQSPATLSVSPGERATLSCRASQSISINLHWYQQKPGQAPRLLIYFASQSISGIPARFSGSGSGTEFTLTISSLQSEDFAVYYCQQSNSFPLTFGGGTKVEIKR
# notes: scFv-80 variant: VH E10Q; not shown: proprietary C-terminal FLAG tag
# B7: scFv AV-F11 (scFv)
# scFv: QVQLVQSGAEVKKPGASVKVSCKASGYTFTDYYLHWVRQAPGQGLEWMGWIDPENGDTEYAPKFQGRVTMTTDTSTSTAYMELRSLRSDDTAVYYCNANKELRYFDVWGQGTMVTVPSGGGGSGGGGSGGGGSEIVMTQSPATLSVSPGERATLSCRASQSISINLHWYQQKPGQAPRLLIYFASQSISGIPARFSGSGSGTEFTLTTSSLQSEDFAVYYCQQSNSFPLTFGGGTKVEIKR
# notes: scFv-80 variant: VH S112P; VL I75T; not shown: proprietary C-terminal FLAG tag
# B8: scFv CE-A6 (scFv)
# scFv: QVQLVQSGAEVKKPGASVKVSCKASGYTFTDYYLHWVRQAPGQGLEWMGWIDPENGDTEYAPKFQGRVTMTTDTSTSTAYMELRSLRSDDTAVYYCNANKELRYFDVWGQGTMVTVSSGGGGSGGGGSGGGGSEIVMTQSPATLSVSPGERATLSCRASQSISINLHWYQQKPGQAPRLLIYFASQSISGIPARFSSSGSGTEFTLTISSLQSEDFAVYYCQQSNSFPLTFGGGTKVEIKR
# notes: scFv-80 variant: VL G64S; not shown: proprietary C-terminal FLAG tag
# B9: scFv BU-B1 (scFv)
# scFv: QVQLVQSGAEVKKPGASVKVSCKASGYTFTDYYMHWVRQAPGQGLEWMGWIDPENGDTEYAPKFQGRVTMTTDTSTSTAYMELRSLRSDDTAVYYCNANKELRYFDVWGQGTMVTVSSGGGGSGGGGSGGGGSEIVMTQSPATLSVSPGERATLSCRASQSISINLHWYQQKPGQAPRLLIYFASQSISGIPARFSGSGSGTEFTLTISSLQSEDFAVYYCQQSNSFPLTFGGGTKVEIKR
# notes: scFv-80 variant: VH L34M; not shown: proprietary C-terminal FLAG tag
# B10: scFv CW-H7 (scFv)
# scFv: QVQLVQSGAEVKKPGASVKVSCKASGYTFTDYYLHWVRQAPGQGLEWMGWIDPENGDTEYAPKFQGRVTMTTDTSTSTAYMELRSLRSDDTAVYYCNANKELRYFDVWGQGTMVTVSSGGGGSGGGGSGGGGSEIVMTQSPATLSMSPGERATLSCRASQSISINLHWYQQKPGQAPRLLIYFASQSISGIPARFSGSGSGTEFTLTISSLQSEDFAVYYCQQSNSFPLTFGGGTKVEIKR
# notes: scFv-80 variant: VL V13M; not shown: proprietary C-terminal FLAG tag
# Legend:
# human IL-12 = biological target: T1, human IL-12; test: SPR, purified scFv captured via FLAG
# Description: (§1) A number of the scFv variants presented in TABLE 4 were selected for full characterization of binding kinetics, encompassing a broad range of mutation profiles and binding affinities. Large-scale protein expressions were carried out for each scFv. The expressed scFvs were purified as monomeric proteins and tested for binding against IL-12 and IL-23 by SPR (TABLE 5).
# (§2) Purified scFvs were subjected to full kinetic characterization using a BIAcore T100 biosensor (GE Healthcare). Approximately 10,000 RU of the proprietry FLAG-specific capture molecule was immobilized on a CM5 Series S Sensor chip, using standard amine coupling chemistry in flow cells (FC) 1 and FC2 (or alternatively FC3 and FC4) of the BIAcore T100 Biosensor. The running buffer used was HBS-EP+ (BIAcore) and interactions measured at 30° C. or 35° C. to promote differentiation of scFvs with very similiar kd values. Peak purified FLAG-tagged scFvs (prepared as described in the previous paragraph) were diluted to 10 nM in running buffer, and captured on FC2 at a flow rate of 10 μl/min in order to capture 50 RU of scFv (typically 60 sec was sufficient to capture this level of tagged scFv). After an appropriate stabilization period, the target, IL-12 or IL-23, were passed over FC1 and FC2 at a flow rate of 60 μl/min at concentrations ranging from 81 nM to 0.13 nM (using a five-fold dilution of IL-12) and 81 nM to 1 nM (using a three-fold dilution of IL-23). The contact time for association was 180 sec and dissociation measured for 10 mins for the highest concentration and 300 sec for all other concentrations in the series. The sensorgram data from FC2 was subtracted from FC1 and a buffer only control. The curves were fitted using a 1:1 Langmuir equation to generate the kₐ, kd and KD values.
# human IL-23 [1] = biological target: T2, human IL-23; test: SPR, purified scFv captured via FLAG
# Description: as §1, §2
# human IL-23 [2] = biological target: T2, human IL-23; test: SPR screen, crude scFv captured via FLAG
# Description: Approximately 6500 individual scFvs recovered from the ribosome display reactions were expressed and screened for binding against IL-23 using a high-throughout SPR assay. The variants were ranked according to the kd and the best variants were sequenced at the nucleic acid level.
# High-throughput SPR screening was conducted using a BIAcore A100 biosensor (GE Healthcare). Approximately 10 000 RU of the proprietary FLAG-specific capture molecule was immobilized on a CM5 Series S Sensor chip, using standard amine coupling chemistry on Spots 1 & 5 (outer spots) and 3,000RU to Spots 2 & 4 (inner spots) in each of the four flow cells of the BIAcore A100 Biosensor. The running buffer used was HBS-EP+ (BIAcore) and all interactions measured at 25° C. Crude periplasmic preparations of FLAG-tagged scFvs (prepared as described in the previous paragraph), were diluted two-fold in running buffer before capturing at a flow rate of 5u1/min for 60 sec. Approx. 100RU (on outer spots) and 50RU (on inner spots) of tagged scFv was captured. Following a 2 min stabilization period, IL-23 was passed over all spots of all four flow cells simultaneously at a flow rate of 30u1/min for 120 sec and dissociation monitored for 200 sec. Generated sensorgrams were referenced against the unmodified spot 3 of each flow cell, and fitted using a 1:1 Langmuir equation with R1 set to local to account for varying ligand densities to generate the kₐ, kd and KD values.
Binder,Kd (human IL-12),koff (human IL-12),kon (human IL-12),Kd (human IL-23 [1]),koff (human IL-23 [1]),kon (human IL-23 [1]),koff (human IL-23 [2])
B1,0.35 nM,0.00052 s⁻¹,1.5e+06 M⁻¹ s⁻¹,0.17 nM,4.9e-05 s⁻¹,280000 M⁻¹ s⁻¹,0.00029 s⁻¹
B2,,,,,,,0.00016 s⁻¹
B3,0.11 nM,0.00024 s⁻¹,2.1e+06 M⁻¹ s⁻¹,0.13 nM,4.4e-05 s⁻¹,340000 M⁻¹ s⁻¹,0.00031 s⁻¹
B4,0.14 nM,0.00031 s⁻¹,2.3e+06 M⁻¹ s⁻¹,0.15 nM,5.5e-05 s⁻¹,360000 M⁻¹ s⁻¹,0.00036 s⁻¹
B5,0.12 nM,0.00023 s⁻¹,2e+06 M⁻¹ s⁻¹,0.16 nM,4.4e-05 s⁻¹,310000 M⁻¹ s⁻¹,0.00045 s⁻¹
B6,,,,,,,0.00012 s⁻¹
B7,0.2 nM,0.00033 s⁻¹,1.6e+06 M⁻¹ s⁻¹,0.093 nM,2.5e-05 s⁻¹,270000 M⁻¹ s⁻¹,0.00028 s⁻¹
B8,,,,,,,0.00033 s⁻¹
B9,0.12 nM,0.00024 s⁻¹,2e+06 M⁻¹ s⁻¹,0.12 nM,3.7e-05 s⁻¹,300000 M⁻¹ s⁻¹,0.00029 s⁻¹
B10,,,,,,,0.000278 s⁻¹
